Measurements reported in PMC3391102 (The Journal of Biological Chemistry, 2012).

Target: Full-length NOD2 (purified recombinant, tags removed) (UniProt Q9HC29 1-1040)
Assay: SPR

Sequence of Full-length NOD2 (purified recombinant, tags removed) (Q9HC29 whole entry): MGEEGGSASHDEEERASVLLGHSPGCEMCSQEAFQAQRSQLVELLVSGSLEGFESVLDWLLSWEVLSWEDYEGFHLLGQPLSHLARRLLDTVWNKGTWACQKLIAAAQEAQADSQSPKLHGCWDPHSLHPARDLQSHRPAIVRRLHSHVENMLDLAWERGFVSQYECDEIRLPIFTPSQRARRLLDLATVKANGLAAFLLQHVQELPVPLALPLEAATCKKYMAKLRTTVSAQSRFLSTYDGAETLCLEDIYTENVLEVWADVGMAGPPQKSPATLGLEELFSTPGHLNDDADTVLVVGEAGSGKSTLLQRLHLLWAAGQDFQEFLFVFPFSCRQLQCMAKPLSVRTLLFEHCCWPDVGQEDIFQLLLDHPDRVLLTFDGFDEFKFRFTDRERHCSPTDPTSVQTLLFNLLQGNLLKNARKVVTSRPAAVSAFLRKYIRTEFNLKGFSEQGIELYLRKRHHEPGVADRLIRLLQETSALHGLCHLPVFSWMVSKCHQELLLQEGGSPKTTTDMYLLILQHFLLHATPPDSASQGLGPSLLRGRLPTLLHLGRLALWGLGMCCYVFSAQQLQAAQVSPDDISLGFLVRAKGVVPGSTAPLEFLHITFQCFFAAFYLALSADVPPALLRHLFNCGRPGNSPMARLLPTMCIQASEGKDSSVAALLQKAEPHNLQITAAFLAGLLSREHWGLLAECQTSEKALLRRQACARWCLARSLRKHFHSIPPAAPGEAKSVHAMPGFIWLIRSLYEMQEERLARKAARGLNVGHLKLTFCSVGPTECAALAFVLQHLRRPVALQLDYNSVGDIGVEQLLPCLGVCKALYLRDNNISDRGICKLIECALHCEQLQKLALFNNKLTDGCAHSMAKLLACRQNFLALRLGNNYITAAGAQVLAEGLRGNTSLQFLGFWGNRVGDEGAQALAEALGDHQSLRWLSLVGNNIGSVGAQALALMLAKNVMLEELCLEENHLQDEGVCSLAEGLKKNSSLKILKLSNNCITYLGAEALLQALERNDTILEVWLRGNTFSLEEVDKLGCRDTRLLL

Kd: 12.4 ± 0.58 µM
B1: NOD2 CARDs (residues Met28-Arg227) (domain or fragment)
chain: MCSQEAFQAQRSQLVELLVSGSLEGFESVLDWLLSWEVLSWEDYEGFHLLGQPLSHLARRLLDTVWNKGTWACQKLIAAAQEAQADSQSPKLHGCWDPHSLHPARDLQSHRPAIVRRLHSHVENMLDLAWERGFVSQYECDEIRLPIFTPSQRARRLLDLATVKANGLAAFLLQHVQELPVPLALPLEAATCKKYMAKLR
